For orientation: pKd means the negative decadic logarithm of the Kd, by convention in mol/L.

The record followed here is PMC9482650, “Quantitative fragmentomics allow affinity mapping of interactomes” (Nature Communications, 2022).

Assay in all cases: holdup assay
What all share (design): key: below the threshold = too weak to quantify, mostly under pKd 3.1 to 4
Common to all, as to settings: plain residues with an end cap or a label only (N-terminal biotin on a linker: ttds)

For experiment [1], the target named is DLG2_1, Q15700.
Experiment [2] deals with T1, MPP5, Q8N3R9.
T1 sequence (Q8N3R9 251-346, limits assumed, looked up): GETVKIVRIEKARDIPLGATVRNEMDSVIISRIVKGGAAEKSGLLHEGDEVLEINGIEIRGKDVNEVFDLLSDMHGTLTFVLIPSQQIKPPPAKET

The target in experiment [3] is MAGI3_3, Q5TCQ9.
Sequence of MAGI3_3, Q5TCQ9 (Q5TCQ9 572-655): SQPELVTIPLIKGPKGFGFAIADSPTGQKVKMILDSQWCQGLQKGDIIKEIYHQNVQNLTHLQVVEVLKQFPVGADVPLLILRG
In experiment [4] the target is PDZRN4_2, Q6ZMN7.
Sequence of PDZRN4_2, Q6ZMN7 (Q6ZMN7 389-498): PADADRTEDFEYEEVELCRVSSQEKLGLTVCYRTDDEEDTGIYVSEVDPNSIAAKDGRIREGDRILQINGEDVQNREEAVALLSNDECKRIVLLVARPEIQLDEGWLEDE
For experiment [5], the target named is T2, PDZD7_2, Q9H5P4.
T2 sequence (Q9H5P4 205-303, limits assumed, looked up): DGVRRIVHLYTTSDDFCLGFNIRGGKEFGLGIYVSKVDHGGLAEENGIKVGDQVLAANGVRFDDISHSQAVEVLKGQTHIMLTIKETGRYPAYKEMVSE

The target of experiment [6] is NHERF2_1, Q15599.
Sequence of NHERF2_1, Q15599 (Q15599 9-91): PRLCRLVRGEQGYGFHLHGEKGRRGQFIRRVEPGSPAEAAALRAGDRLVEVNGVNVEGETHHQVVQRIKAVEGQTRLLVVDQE
In experiment [7] the target is T3, SNTA1, Q13424.
T3 sequence (Q13424 82-180, limits assumed, looked up): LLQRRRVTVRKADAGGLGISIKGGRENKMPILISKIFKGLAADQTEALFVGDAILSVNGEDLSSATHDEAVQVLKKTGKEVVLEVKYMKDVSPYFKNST

In experiment [8] the target is T4, SHANK2, Q9UPX8.
T4 sequence (Q9UPX8 621-730, limits assumed, looked up): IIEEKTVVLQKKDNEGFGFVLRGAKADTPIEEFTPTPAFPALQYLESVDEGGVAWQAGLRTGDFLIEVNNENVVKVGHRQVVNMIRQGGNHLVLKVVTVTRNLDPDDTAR

For experiment [9], the target named is T5, PARD6B, Q9BYG5.
T5 sequence (Q9BYG5 152-260, limits assumed, looked up): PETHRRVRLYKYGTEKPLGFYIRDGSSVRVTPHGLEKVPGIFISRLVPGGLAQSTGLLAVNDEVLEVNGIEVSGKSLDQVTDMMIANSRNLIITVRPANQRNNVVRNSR

The target of experiment [10] is MAGI1_3, Q96QZ7.
Sequence of MAGI1_3, Q96QZ7 (Q96QZ7 638-725): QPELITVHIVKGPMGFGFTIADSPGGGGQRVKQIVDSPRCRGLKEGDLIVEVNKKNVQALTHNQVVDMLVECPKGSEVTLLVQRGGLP
Experiment [11] concerns the target T6, PDZD8, Q8NEN9.
T6 sequence (Q8NEN9 361-459, limits assumed, looked up): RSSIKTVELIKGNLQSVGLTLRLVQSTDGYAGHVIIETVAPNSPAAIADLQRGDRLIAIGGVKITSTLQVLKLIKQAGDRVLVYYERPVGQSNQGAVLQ

The target in experiment [12] is T7, MPDZ_3, O75970.
T7 sequence (O75970 372-473, limits assumed, looked up): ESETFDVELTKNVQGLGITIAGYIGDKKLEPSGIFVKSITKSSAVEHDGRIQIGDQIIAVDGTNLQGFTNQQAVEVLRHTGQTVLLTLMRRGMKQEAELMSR

Experiment [13] concerns the target T8, PARD6G, Q9BYG4.
T8 sequence (Q9BYG4 153-261, limits assumed, looked up): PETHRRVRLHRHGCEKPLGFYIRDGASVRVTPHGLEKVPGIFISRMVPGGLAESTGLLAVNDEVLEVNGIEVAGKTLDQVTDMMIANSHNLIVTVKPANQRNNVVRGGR

The target in experiment [14] is SDCBP_1, O00560.
Sequence of SDCBP_1, O00560 (O00560 111-198): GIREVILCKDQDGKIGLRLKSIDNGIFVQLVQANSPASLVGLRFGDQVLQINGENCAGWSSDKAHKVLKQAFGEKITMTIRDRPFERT
Experiment [15] addresses T9, PDZD2_3, O15018.
T9 sequence (O15018 581-682, limits assumed, looked up): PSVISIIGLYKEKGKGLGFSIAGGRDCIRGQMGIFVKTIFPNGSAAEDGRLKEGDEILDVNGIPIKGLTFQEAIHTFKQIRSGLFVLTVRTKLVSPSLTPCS

The target in experiment [16] is MAST3, O60307.
Sequence of MAST3, O60307 (O60307 945-1048): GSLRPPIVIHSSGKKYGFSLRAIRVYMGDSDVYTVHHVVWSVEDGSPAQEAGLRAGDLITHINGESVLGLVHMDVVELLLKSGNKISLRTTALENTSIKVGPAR
In experiment [17] the target is T10, SHANK3, Q9BYB0.
T10 sequence (Q9BYB0 641-750, limits assumed, looked up): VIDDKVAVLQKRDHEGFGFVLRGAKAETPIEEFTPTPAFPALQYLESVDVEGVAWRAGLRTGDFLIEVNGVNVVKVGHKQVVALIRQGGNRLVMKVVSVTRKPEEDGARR

The target in experiment [18] is T11, APBA3_2, O96018.
T11 sequence (O96018 480-570, limits assumed, looked up): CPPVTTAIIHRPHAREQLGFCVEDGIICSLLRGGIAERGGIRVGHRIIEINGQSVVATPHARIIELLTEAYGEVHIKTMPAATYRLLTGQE

Experiment [19] has as its target T12, PTPN13_5, Q12923.
T12 sequence (Q12923 1877-1975, limits assumed, looked up): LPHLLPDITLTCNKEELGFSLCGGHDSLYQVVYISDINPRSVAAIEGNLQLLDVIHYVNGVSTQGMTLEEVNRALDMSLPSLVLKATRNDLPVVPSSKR

Experiment [20] has as its target PREX1_1, Q8TCU6.
In experiment [21] the target is AHNAK2, Q8IVF2.
Sequence of AHNAK2, Q8IVF2 (Q8IVF2 108-193): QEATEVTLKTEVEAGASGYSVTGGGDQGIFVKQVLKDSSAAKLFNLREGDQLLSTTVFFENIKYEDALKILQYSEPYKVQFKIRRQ
Experiment [22] deals with GRIP2_2, Q9C0E4.
Sequence of GRIP2_2, Q9C0E4 (Q9C0E4 137-245): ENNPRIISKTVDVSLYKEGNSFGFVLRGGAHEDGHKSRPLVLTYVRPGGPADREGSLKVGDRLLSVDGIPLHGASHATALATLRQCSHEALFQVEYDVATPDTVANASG
The target of experiment [23] is PDZD9, Q8IXQ8.
Sequence of PDZD9, Q8IXQ8 (Q8IXQ8 23-120): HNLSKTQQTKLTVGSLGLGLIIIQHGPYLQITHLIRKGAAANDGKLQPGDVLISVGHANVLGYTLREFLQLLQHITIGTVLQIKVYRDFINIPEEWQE
Experiment [24] deals with RIMS2, Q9UQ26.
Sequence of RIMS2, Q9UQ26 (Q9UQ26 637-758): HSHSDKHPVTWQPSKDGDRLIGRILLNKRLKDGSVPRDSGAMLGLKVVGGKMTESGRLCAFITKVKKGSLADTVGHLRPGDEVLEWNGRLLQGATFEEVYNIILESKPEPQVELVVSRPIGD
In experiment [25] the target is MAGI1_4, Q96QZ7.
Sequence of MAGI1_4, Q96QZ7 (Q96QZ7 other isoform, or with tags, fused parts or gaps): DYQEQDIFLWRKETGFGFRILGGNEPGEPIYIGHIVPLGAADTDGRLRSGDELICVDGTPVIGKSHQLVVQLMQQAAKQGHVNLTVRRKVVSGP

Sequence of PREX1_1, Q8TCU6 (Q8TCU6 608-718): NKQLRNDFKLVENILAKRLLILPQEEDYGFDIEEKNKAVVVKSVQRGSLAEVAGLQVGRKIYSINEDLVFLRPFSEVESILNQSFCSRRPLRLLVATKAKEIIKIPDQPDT

As to TGDTLEKFVEGL [CBP, Q92793], the pKd entry is “below the threshold” in [1]; “below the threshold” in experiment [2]; “below the threshold” in experiment [3]; “below the threshold” in experiment [4]; “below the threshold” in [5]; 3.84 in [6]. Besides, the pKd entry is “below the threshold” in experiment [7]; “below the threshold” in [8]; 4.58 in [9]; “below the threshold” in [10]; “below the threshold” in experiment [11]; 4.11 in experiment [12]. For the same molecule, the pKd in experiment [13] was 3.82; in [14] it was “below the threshold”; in [15], “below the threshold”; in experiment [16], “below the threshold”; in experiment [17] it was “below the threshold”; in [18], 3.95. Further, the pKd result in experiment [19] was “below the threshold”; in experiment [20], 4.22; in [21] it was “below the threshold”.
RRVRKLPSTTL [RPS6KA1, Q15418]: the pKd in experiment [1] was 3.83; in [2], “below the threshold”; in [3], “below the threshold”; in [4], “below the threshold”; in experiment [5] it was “below the threshold”; in experiment [6], “below the threshold”. Also, the negative-log Kd (pKd) in experiment [7] is 3.87; in experiment [9], “below the threshold”; in experiment [22], “below the threshold”; in experiment [10], “below the threshold”; in experiment [23] it was “below the threshold”; in experiment [11] it was “below the threshold”. In addition, the pKd in experiment [12] is 3.81; in experiment [13], “below the threshold”; in experiment [14] it was “below the threshold”; in [15], “below the threshold”; in [16] it was “below the threshold”; in experiment [17], 4.14. The pKd entry in experiment [24] is “below the threshold”; in [18] it was “below the threshold”; in experiment [19], 3.84; in experiment [21], “below the threshold”; in experiment [25] it was “below the threshold”.
Take QPGTPTRTAV [MAP2K2, P36507]: the pKd entry in [1], in [2], in experiment [3], in [4], in experiment [5] and in experiment [6] was “below the threshold” in each case. For the same molecule, the pKd result in experiment [7], in [8], in experiment [9], in experiment [22], in experiment [10] and in [23] was “below the threshold” throughout. Moreover, the pKd result in experiment [11], in experiment [12], in [13], in [14], in experiment [15] and in [16] was “below the threshold” in each case. Besides, the negative logarithm of the Kd (pKd) result in experiment [17], in experiment [24], in experiment [18], in [19], in experiment [20] and in experiment [21] was “below the threshold” throughout. Moreover, the pKd result in experiment [25] was “below the threshold”.
In the case of CLDTSRETDL [KCNA5, P22460], the pKd entry in [1], in [2], in experiment [3], in [4], in [5] and in experiment [6] was “below the threshold” in each case. Besides, the pKd was 5.34 in experiment [7]; “below the threshold” in experiment [8]; “below the threshold” in [9]; “below the threshold” in [22]; “below the threshold” in experiment [10]; “below the threshold” in experiment [23]. Also, the pKd result in experiment [11], in [12], in [13], in [14], in experiment [15] and in [16] was “below the threshold” throughout. The pKd entry in experiment [17], in experiment [24], in [18], in experiment [19], in experiment [20] and in experiment [21] was “below the threshold” throughout. For the same molecule, the pKd entry in experiment [25] is reported as “below the threshold”.
